In patent publication US20050059589A1, “Methods and compositions for treating allergic reactions” (priority 1991, published 2005):

Experiments:
[1] = test system: alloreactivity in vivo; conditions: systemic administration; cited from earlier work
[2] = test system: experimental autoimmune encephalomyelitis; conditions: interperitoneal administration; cited from earlier work
[3] = test system: late phase reaction in lung tissue of patients with allergic bronchial asthma; test: allergen inhalation (dust mite extract) with bronchoalveolar lavage; type: in vivo, human; conditions: allergen premixed with IL-1 receptor versus allergen alone
Method: In this example, twenty patients with documented allergic bronchial asthma participate. Allergen inhalation is performed by inhaling dust mite extract (see Example 1, above) at 15 minute intervals using a Wiesbadnener Doppelspray (8 L/min air flow, nebulizer output approximately 0.2 ml/min). Ten patients received the allergen premixed with IL-1 receptor; the other ten patients received the allergen alone.
Eosinophil granule major basic protein levels are markedly elevated in the lavage fluid of these asthmatic patients. Peripheral blood eosinophil counts decrease during late phase responses to antigen challenge at the time eosinophil levels in the pulmonary tissues increases, presumably because of margination and emigration in the lungs.

[4] = test system: conjunctival allergic response to ryegrass allergen; test: conjunctival provocation test (CPT) with ryegrass allergen; type: in vivo, human
Method: Ten ryegrass-sensitive patients with hay fever conjunctivitis and ten nonallergic subjects without ocular disease are challenged by weekly topical administration of ryegrass allergen for 4 weeks with 10 μl of four different allergen doses (10,000, 32,000, 100,000, and 320,000 BU/ml of ryegrass allergen) (Pharmalgen, Pharmacia Diagnostics AB, Uppsala, Sweden). Albumin diluent (Pharmacia), is used to dilute the allergen. Five of the patients and five of the nonallergic subjects are given allergen premixed with IL-1 receptor. The other five patients and subjects are given allergen without IL-1receptor. Importantly, the allergic patients and control subjects have no clinical symptoms before ocular provocation. […]
The challenge solution is administered to the contralateral eye in both patients and control subjects. Clinical conjunctival evaluation with tear-fluid cytology is assessed in both eyes before administration of allergen or buffer 20 minutes, one hour, and six hours after challenge. In both the allergic patients and control subjects, the following ocular symptoms, both subjective and objective, are evaluated by a physician: hyperemia, edema, tearing, and itching. Each symptom is scored from 0 to 4+ and graded as follows: 0—absent; 1+—mild; 2+—moderate; 3+—severe; and 4+—very severe. […]

[5] = test system: early and late phase response in nasal tissue of patients with seasonal allergic rhinitis; test: nasal challenge with ragweed or mixed-grass pollen antigen; type: in vivo, human; conditions: prechallenge nasal lavages with IL-1 receptor versus buffer, 1000 PNU antigen, late and rechallenge reactions
Description: Sixteen patients with seasonal allergic rhinitis due to grass or ragweed pollens are selected.
Ragweed and mixed-grass pollen extracts (timothy, orchard, June and meadow grass in a ratio of 3:2:3:2) are purchased from Greer Laboratories (Lenoir, N.C.); lactated Ringer's solution and oxymetazoline hydrochloride (Afrin, Schering, Kenilworth, N.J.) are purchased from the hospital pharmacy.
At the time of the challenge, oxymetazoline hydrochloride is sprayed into the nose (two sprays per nostril) of all patients to prevent mucosal congestion, which would interfere with the collection of nasal secretions.
Eight of the sixteen patients receive four prechallenge nasal lavages with IL-1 receptor diluted in buffer; the remaining […] receive lavages with buffer only. Thereafter, challenges with 1000 PNU of antigen are undertaken.
The patients maintain a symptom score sheet during the challenge procedure. In addition to the number of sneezes, a six-point scale from 0 to 5 (with 0 equal to no symptoms and 5 equal to severe symptoms) is used to assess nasal secretion, blockage, and itching. The degree of blockage is, of course, underestimated on those score sheets because of the pretreatment with oxymetazoline hydrochloride. The presence or absence of symptoms correlates with the presence or absence of mediators during the late reaction.

[6] = test system: cutaneous allergic reactions following the intradermal administration of antigen; test: LPR skin test, intradermal challenge with dust mite antigen; type: in vivo, human; conditions: IL-1 receptor 1.65 mg/ml injected with dust mite antigen, versus allergen without receptor
Method: The LPR skin test is performed by interadermally injecting subjects on the forearm with test solution. The test solution contains the challenging antigen. Controls receive test solution without challenging antigen. The injection site is thereafter examined at intervals up to 96 hours. The diameters of the reactions are measured in two perpendicular directions and the characteristics are noted at different times.
The LPR gradually subsides over a 24 hour period. At the peak, the injection site is characterized by erythema, warmth, edema, pruritus and/or tenderness. The LPR is more extensive in area and produces greater discomfort then the early phase reaction.
Dust mite antigen is used (D. pteronyssinus; Allergy Laboratories of Ohio; 30,000 AU/ml). The soluble IL-1 receptor (Immunex Corp.; Seattle, Wash.) stock concentration is 10 mg/ml. Eight test solutions are prepared for intradermal injections (0.01 ml each) using TB syringes and disposable needles. Four intradermal test sites are used on each forearm.
Two test solutions are controls. […] Three concentrations of the antigen are evaluated (final concentrations: 1:500,000, 1:200,000, and 1:100,000).
The area of the wheal reaction is marked on the skin with a ball-point pen. […] The wheal reactions are then calculated by counting the squares within the pen-marked area.

B1: IL-1 receptor: soluble IL-1 receptor (Immunex Corp.; Seattle, Wash.), stock concentration 10 mg/ml (protein, UniProt P14778 18-336, looked up)
extracellular domain: LEADKCKEREEKIILVSSANEIDVRPCPLNPNEHKGTITWYKDDSKTPVSTEQASRIHQHKEKLWFVPAKVEDSGHYYCVVRNSSYCLRIKISAKFVENEPNLCYNAQAIFKQKLPVAGDGGLVCPYMEFFKNENNELPKLQWYKDCKPLLLDNIHFSGVKDRLIVMNVAEKHRGNYTCHASYTYLGKQYPITRVIEFITLEENKPTRPVIVSPANETMEVDLGSQIQLICNVTGQLSDIAYWKWNGSVIDEDDPVLGEDYYSVENPANKRRSTLITVLNISEIESRFYKHPFTCFAKNTHGIDAAYIQLIYPVTNFQK
modifications: extracellular domain
notes: soluble IL-1 receptor (Immunex Corp; Seattle, Wash.), stock concentration 10 mg/ml
survival of heart allografts [1]: prolonged
severity of the disease [2]: reduced
activation of mast cells, infiltration of the tissues by eosinophils and other inflammatory cells, tissue damage and dysfunction (histologic data) [3]: markedly suppressed
eosinophil emigration in the lungs (bronchoalveolar lavage) [3]: suppression
immediate hypersensitivity ocular reaction (clinical response) ([4]; allergic subjects, allergen premixed with IL-1 receptor versus allergen without receptor, all allergen doses): significantly reduced response
increase in eosinophils in the tear fluid ([4]; highest allergen dose, 6 hours after provocation (late phase), allergic patients): not seen
nasal symptoms [5]: inhibits
release of histamine and other inflammatory mediators [5]: inhibits
reduction of wheal at peak of LPR ([6]; LPR peak between eight and 13 hours): at least 50%
wheal area, early phase ([6]; twenty minutes post injection): reduced
